In PMC12913940:

Biological target: Crassostrea gigas GABARAPL2, Flag-tagged (Crassostrea gigas)
Experiment: co-IP

- fold intensity of the co-IP against the other three Atg8 family members: 4.4 fold
Substance: Crassostrea gigas starch-binding domain-containing protein 1 (STBD1), HA-tagged (natural protein)
